Assay: soluble on expression in E. coli; label from the status in PepcDB or PDB records

| Sequence | soluble on expression in E. coli |
| --- | --- |
| PVFILGHWRSGTTFVHNVFSCDSHFGYNTTYQTVFPHLMMWGQPFFKKNMSWLMPDKRPTDNMELAVDLPQEEEFALANMMPYTYYNFWFLPRYQQEYADKYLLFDTISEAELKVFEETFTKLIKISLWNTQGTQFLSKNPPHTGRVKELVKMFPNAKFIYLMRNPYTVFESTRSFFTNTIQPLKLQDITPAELENNILSIYAKLYHKYEADKQFIPEGNLMEVKFEDFEADAMGMTENIYHALDIPGFAEARGSIEKYVGGKKGYKKNKYKYDDRTVQLVQDHWDFALKQWDYSL | not soluble |
| MLQPPHQSLQVAAVPAQRAPVRDRDQDAPWHTEAVCRRDEAGLFFAPSKEPTAARLSREEAAKRVCARCPVMVECREHALLQPEPYGVWGGLTAAERRVVLARRRRRDVELKKAARGTIAAAG | not soluble |
| MADDGLGDVPMETESMPQYTISHVIEAHKSDTKALAVTQGGCLISGGRDETVKFWAKKGKQYTKTHAFEQPKGITVNSIAYAELADGWRLFVGRRDGTIAVFGPSQAEPYAIFNEHKQNVCCLHINEKATHMLSGSWDSNVIIWPITELNSSSFTTIVCPGHTLSVWALASFPDLPNTYLSASADKTIRMWFGDTTLSVFKGHTDVVRALVVLSSSHFLSAGNDGHIIHWDVASASILRKFATQAHEFIYSMTLSDSHILTTGEDGTLEFWAIDGGKDGNLAIVSEAVIQLPTTNTWDAKVLLNSDIAVAGSDGRIYIMTTDKNRKADDDILDAFDAEVVAKLTAKTERMKQEEHETVTIKVDIDDRPTQLNLKYKKGTDPGLCAQEFLSENNLPIHYLEEITRFIKDRIPEARAFDLKSGKKVIVDGKEYDYALGVNFGKGEPDKQMPFNVNESPQFAAQRFVERHQLPVSVIPSLAGMISQEMDKLSKGAASAQSGYEDPFTGPGRYVPQGSSNSGGHGADPFTGSGRYVPQASNSSGFDTGFSGDPLTGDGGYRASAPENTGSHAVPLSSLPQNKKKPRGPLVPVPDFYIIGLAGKGEKAIAKLKELNEKQDAFQLNPDQINGLEELFVLPTSSNYSSEVTQSAFEMSLQWPVEHLTPVLDFLRIALTHHSLNSYFCDRERGQELVGRLIAILVSDPADVALKVLVCRCIANAFSHPVGRNLFASTELSTLAPLVVRQVLNEKTVLQMSAATALANWSLALLQQSEQCEQLGPKEDLLRAILNGIESVDSFGYLGEDAIIRLLQALVTVMWGDASVIRLAKNRNIAQIAARLKDAVSNDSGKNIARDIVEMTYAV | not soluble |
| MDYKVSRSGEIVEGEVEDSEKIDLPPGFRFHPTDEELITHYLRPKVVNSFFSAIAIGEVDLNKVEPWDLPWKAKLGEKEWYFFCVRDRKYPTGLRTNRATKAGYWKATGKDKEIFKGKSLVGMKKTLVFYKGRAPKGVKTNWVMHEYRLEGKFAIDNLSKTAKNECVISRVFHTRTDGTKEHMSVGLPPLMDSSPYLKSRGQDSLAGTTLGGLLSHVTYFSDQTTDDKSLVADFKTTMFGSGSTNFLPNIGSLLDFDPLFLQNNSSVLKMLLDNEETQFKKNLHNSGSSESELTASSWQGHNSYGSTGPVNLDCVWKF | soluble |
| MGSDKIHHHHHHMTLDNPVANKFSIAASQYKQHDVLQRITAKQLLDNAPLFGTLLDVGAGPGTSFNAFNDVEQVVAVDIAHGMLNQLTKQYPDYLPICSDAQALGLQSASIDSIYSNLALQWCQNLPEAFAEFHRVLRQNGECYLSVVVDGSLAELKTLGFRVNQFNSVSAIKAAFIASQDSPNDWLNIDIQVKSISVYFDDLRSLLYSIKGVGASFAQQGENNATHHHPLTKQQWQQRIALAETMRTDKGIPLTYQIAYIRAKRG | not soluble |
| GEKGTTGTGNAALDNIFERKSVRTYLNKGVEKEKIDLMLRAGMSAPSGKDVRPWEFVVVSDRAKLDSMAAALPYAKMLTQARNAIIVCGDSARSFYWYLDCSAAAQNILLAAESMGLGAVWTAAYPYEDRMEVVRKYTHLPENILPLCVIPFGYPATKEQPKQKYDEKKIHYNQY | soluble |
| MSNVTPKLVWPEDDYVDESLLEDHQGPARLEYDALVMLANLPPLTEEIMSRCPALPVKTRSTPEYTLVLDLDETLVHCSLTPLDNATMVFPVVFQNITYQVYVRLRPHLRTFLSRMAKTFEIIIFTASKKVYANKLCDILDPRKNHIRHRLFREHCVCVFGNYVKDLTILGRDPSKTMILDNAVQSFAYQLDNGIPIESWFHDRNDTELLKLCSFLEAIPTLGRDVREILRHKYRLRDHIPFYSIIHQQEGPGRLPLLEVAPPPVTEPNDEQLITQVVQKHPQLVQG | soluble |
| MDPTETFARMNKVMHQTLKYVKEVESINFSSRGVIDFNGEVMEDHQRIFLSVCTSVFANFSFSCQMDVEKLLSFLMALFENYSKENAYHNALHAADSVQMLFLILREKPATLIFTENEVILAFLATLSLGFVHPGVSNAFLARIDHPLVLVYGDMTTQQSAGLTALLYLLNREENRFIDLFANSGTQPFSQFLREILVETVLGTAPRLRSSLLRDLEKVAVADAVELNDIPILLAAVVILADNALALRPHAQFVNLAGLMVTEWLREAYEEEQRGMDPLVPNLRKQIYENGLGMAVDYCKVWLRPLITNIRALVPQDLYDNMEGNTEAPSMSEIQDFLVHLDSSNERWNDGSVPVIDIIRRITMHATSLDRKASKRAILNAASN | not soluble |
| MKKFFLFLVLPIFLFASPLKAVFDCAVGDLDWISLRLSLIKKTAEQLMEEGKSYRFVITIHSHCIKVVDADLKKFPESERRKIELIQSQLKTLKEMYSVDVKACQIAMNRGKIKKVPPFVETVPNSWITLIELQNKGFAFVPF | not soluble |
| MKDPDRWMDVKEFLPLLAQKEWYTKTRFGYARGHEPVVYVQNIRRYYDVLVRITEPDAPSASGLEDQLAWLEHHHHHH | not soluble |
| MKDDRYPSEWAQLALQKKQSVNWACERCGVQCLKPGEGKGLSTGDRYRLRMAVHHCDYDPGNNSPSNLKALCSPCHLYFHRRQRGNVIPGQLRLKFSFLILEHHHHHH | soluble |
| MSLGNSAGFGSVGDNSSGGSGANRDANNRPSWFQETARRTIPNTVLRREVKSSSNSGEDDNGNRGDSTSTGFNTLTFGAKKHMLLGSSNVSTGGNDHMNPLLMDNSEAPPTVSISDWKREEGLFDLRNTRNENTINTIGTPTFISPISREKSEVSLFDSNSQSRSSSASSIGSESETGNAVVVFGYREAITKQILAYFAQFGEILEDLESELGDTETMRTPGYFFQQAPNRRRISREHGRTWTKLTYANHSSYLRALREHGTIYCGAAIGCVPYKHELISELSRDTYNSMNDVKQTNSISTNQLTQHNQSEVPKSNQTFETKPTNETERNQIKTPSAFGSDNKGNGSISSGRTKRRLSIKDGSSLFLSGTEGHHHHHH | soluble |
| MFFKQFYDNHLSQASYLVGCQRTGEAIIIDPVRDLSKYIEVADSEGLTITQATETHIHADFASGIRDVAKRLNANIYVSGEGEDALGYKNMPSKTQFVKHGDIIQVGNVKLEVLHTPGHTPESISFLLTDLGGGSSVPMGLFSGDFIFVGDIGRPDLLEKSVQIKGSTEISAKQMYESVQNIKNLPDYVQIWPGHGAGSPCGKALGAIPISTIGYEKINNWAFNEIDETKFIESLTSNQPAPPHHFAQMKQVNQFGMNLYQSYDVYPSLDNKRVAFDLRSKEAFHGGHTKGTINIPYNKNFINQIGWYLDFEKDIDLIGDKSTVEKAKHTLQLIGFDKVAGYRLPKSGISTQSVHSADMTGKEEHVLDVRNDEEWNNGHLDQAVNIPHGKLLNENIPFNKEDKIYVHCQSGVRSSIAVGILESKGFENVVNIREGYQDFPESLKLEHHHHHH | soluble |
| MDFKASGTKFKKTGKKVVPAKAFEEIVQTNRDVLKKSAFLSDLLENLQPHLNNIKKIRCVAIGNFKEDFPATYQFALLLEITDYIKSEDERDVVVSLYDPIFTKEEIQYLKSLGSKWLIEEEFSENDAIDYESVLYFLPHAPLDLTENILSSQRPHLWLANNMISHTDRYTKAKLCENYPNLSKLVHYLQTNAPPEVKKAHDVDGFATFIPKRKRKNRNNSSKLKVTPSDIDYDSIAPKFKSCQILTDFDEGKYLKEKPWINSFSDLTLHAIEY | not soluble |
| MRSDKVGSIKDLPSLPAGVKFDPSDKEILMHLEAKVSSDKRKLHPLIDEFIPTLEGENGICYTHPEKLPGVSKDGQVRHFFHRPSKAYTTGTRKRRKVSTDEEGHETRWHKTGKTRPVLSQSGETGFKKILVLYTNYGRQKKPEKTNWVMHQYHLGSSEDEKDGEPVLSKVFYQTQPRQCGSMEPKPKNLVNLNRFSYENIQAGFGYEHGGKSEETTQVIRELVVREGDGSCSFLSFTCDASKGKESFMKNQ | soluble |
| MVPRTSSSNPTLRKTSPTMADIDITRSHSLGLDDGRAAVGRVADKLETELGVDAEWTGDTLQFSGQGADGHIEVEADAVHVAINLSAFLQPMRSRVQAEAEDYLDQSLQSQS | not soluble |
| MGSDKIHHHHHHMTRTTLEAGVTRRDVLKVAGLTGLGAALYASGLERWLPRALTAEATNQVPFYGKYQAGILTPPQNHVQIVAFDVQTTRRDELIDLLKRWTRACARLTAGLPLGDSDSLYVPPEDTGEAEGLSASHLTFTFGCGHGLFADDRFEIGHKRPNLLRELPAFDLDQLDPKWAGGDLVVQICADDQQVVFHALRNLTRIGRGIVKIRWTQTGFQRSKAADATGGTPRNLFGFKDGTGNPDVSQPAIRNKHLFYQWQDGSPWMTNGSFLVVRRIQMHLEVWDRTILKEQERTFGRDRASGAPLGSKDEFASVTPSKRTARGEASLPKDSHTAVAHGSGEAQLLRRSYSYQAGINETTGALDAGLLFLSYQRSPEQFITIQRRLAASDRLNEYITHRGSALFACFGGIQKGGYIGDALFA | not soluble |
| MASSTTFVIVGGGLAGAKAVEALRRSDFGGRIILFGDEEHLPYDRPPLSKEFLAGKKSLSDFTIQTSDWYRDHDVDVRLGVRVSSLDRSAHTVELPDGAAVRYDKLLLATGSAPRRPPIPGSDAAGVHYLRSYNDAVALNSVLVQGSSLAVVGAGWIGLEVAASARQRGVDVTVVETAIQPLLAALGEAVGKVFADLHRDQGVDLRLQTQLEEITAADGKATGLKMRDGSTVAADAVLVAVGAKPNVELAQQAGLAMGEGGVLVDASLRTSDPDIYAVGDIAAAEHPLLGTRVRTEHWANALKQPAVAAAGMLGRPGEYAELPYLFTDQYDLGMEYVGHAPSCDRVVFRGNVAGREFLSFWLDGDSRVLAGMNVNVWDVVDDVKGLIRSGNPVDVDRLVDPQWPLADLTTN | not soluble |
| MMSIAQVRSAGSAGNFYTDKDNYYVLGSMGERWAGRGAEQLGLQGSVDKDVFTRLLEGRLPDGADLSRMQDGSNRHRPGYDLTFSAPKSVSMMAMLGGDKRLIDAHNQAVDFAVRQVEALASTRVMTDGQSETVLTGNLVMALFNHDTSRDQEPQLHTHAVVANVTQHNGEWKTLSSDKVGKTGFIENVYANQIAFGRLYREKLKEQVEALGYETEVVGKHGMWEMPGVPVEAFSGRSQTIREAVGEDASLKSRDVAALDTRKSKQHVDPEIKMAEWMQTLKETGFDIRAYRDAADQRADS | soluble |
| SMARENGESSSSWKKQAEDIKKIFEFKETLGTGAFSEVVLAEEKATGKLFAVKCIPKKALKGKESSIENEIAVLRKIKHENIVALEDIYESPNHLYLVMQLVSGGELFDRIVEKGFYTEKDASTLIRQVLDAVYYLHRMGIVHRDLKPENLLYYSQDEESKIMISDFGLSKMEGKGDVMSTACGTPGYVAPEVLAQKPYSKAVDCWSIGVIAYILLCGYPPFYDENDSKLFEQILKAEYEFDSPYWDDISDSAKDFIRNLMEKDPNKRYTCEQAARHPWIAGDTALNKNIHESVSAQIRKNFAKSKWRQAFNATAVVRHMRKLHLGSSLDSSNA | soluble |
